Laboratory results from PMC7367873, “Dissecting the sequence determinants for dephosphorylation by the catalytic subunits of phosphatases PP1 and PP2A” (Nature Communications, 2020).

Experiments:
GFP-14-3-3β = GFP-14-3-3β co-IP with LC-MS/MS, untreated GFP-14-3-3β versus GFP control (14-3-3 interactome); assay type: binding, human; conditions: 3 replicates each
[1] = system: GFP-14-3-3β and its binding proteins; assay: GFP-14-3-3β co-IP with LC-MS/MS label-free quantification, untreated versus PP1c-treated; design: species or system human; conditions: pairwise comparison PP1 vs untreated, 3 replicates each
[2] = log2 difference, pairwise comparison untreated vs GFP, label-free quantification
[3] = log2 difference, label-free quantification
[4] = pairwise comparison untreated GFP-14-3-3β vs GFP, student's t-test, LC-MS/MS label-free quantification
[5] = student's t-test, LC-MS/MS label-free quantification

Row | Difference (log2), PP1 vs untreated [1, 3] | Difference (log2), PP1 vs untreated [1, 5] | Molecule | Difference (log2), untreated vs GFP (GFP-14-3-3β; [2]) | Difference (log2), untreated vs GFP (GFP-14-3-3β; [4])
1 | 1.563 | – | DDX1 (protein, UniProt Q92499 1-740, looked up) ATP-dependent RNA helicase …: MAAFSEMGVMPEIAQAVEEMDWLLPTDIQAESIPLILGGGDVLMAAETGSGKTGAFSIPVIQIVYETLKDQQEGKKGKTTIKTGASVLNKWQMNPYDRGSAFAIGSDGLCCQSREVKEWHGCRATKGLMKGKHYYEVSCHDQGLCRVGWSTMQASLDLGTDKFGFGFGGTGKKSHNKQFDNYGEEFTMHDTIGCYLDIDKGHVKFSKNGKDLGLAFEIPPHMKNQALFPACVLKNAELKFNFGEEEFKFPPKDGFVALSKAPDGYIVKSQHSGNAQVTQTKFLPNAPKALIVEPSRELAEQTLNNIKQFKKYIDNPKLRELLIIGGVAARDQLSVLENGVDIVVGTPGRLDDLVSTGKLNLSQVRFLVLDEADGLLSQGYSDFINRMHNQIPQVTSDGKRLQVIVCSATLHSFDVKKLSEKIMHFPTWVDLKGEDSVPDTVHHVVVPVNPKTDRLWERLGKSHIRTDDVHAKDNTRPGANSPEMWSEAIKILKGEYAVRAIKEHKMDQAIIFCRTKIDCDNLEQYFIQQGGGPDKKGHQFSCVCLHGDRKPHERKQNLERFKKGDVRFLICTDVAARGIDIHGVPYVINVTLPDEKQNYVHRIGRVGRAERMGLAISLVATEKEKVWYHVCSSRGKGCYNTRLKEDGGCTIWYNEMQLLSEIEEHLNCTISQVEPDIKVPVDEFDGKVTYGQKRAAGGGSYKGHVDILAPTVQELAALEKEAQTSFLHLGYLPNQLFRTF | -0.009417 | –
2 | – | -2.212 log2 | FGD6 (protein, UniProt Q6ZV73 1-1430, looked up) FYVE, RhoGEF and PH …: MTSAAEIKKPPVAPKPKFVVANNKPAPPPIAPKPDIVISSVPQSTKKMKPAIAPKPKVLKTSPVREIGQSPSRKIMLNLEGHKQELAESTDNFNCKYEGNQSNDYISPMCSCSSECIHKLGHRENLCVKQLVLEPLEMNENLENSKIDETLTIKTRSKCDLYGEKAKNQGGVVLKASVLEEELKDALIHQMPPFISAQKHRPTDSPEMNGGCNSNGQFRIEFADLSPSPSSFEKVPDHHSCHLQLPSDECEHFETCQDDSEKSNNCFQSSELEALENGKRSTLISSDGVSKKSEVKDLGPLEIHLVPYTPKFPTPKPRKTRTARLLRQKCVDTPSESTEEPGNSDSSSSCLTENSLKINKISVLHQNVLCKQEQVDKMKLGNKSELNMESNSDAQDLVNSQKAMCNETTSFEKMAPSFDKDSNLSSDSTTVDGSSMSLAVDEGTGFIRCTVSMSLPKQLKLTCNEHLQSGRNLGVSAPQMQKESVIKEENSLRIVPKKPQRHSLPATGVLKKAASEELLEKSSYPSSEEKSSEKSLERNHLQHLCAQNRGVSSSFDMPKRASEKPVWKLPHPILPFSGNPEFLKSVTVSSNSEPSTALTKPRAKSLSAMDVEKCTKPCKDSTKKNSFKKLLSMKLSICFMKSDFQKFWSKSSQLGDTTTGHLSSGEQKGIESDWQGLLVGEEKRSKPIKAYSTENYSLESQKKRKKSRGQTSAANGLRAESLDDQMLSRESSSQAPYKSVTSLCAPEYENIRHYEEIPEYENLPFIMAIRKTQELEWQNSSSMEDADANVYEVEEPYEAPDGQLQLGPRHQHSSSGASQEEQNDLGLGDLPSDEEEIINSSDEDDVSSESSKGEPDPLEDKQDEDNGMKSKVHHIAKEIMSSEKVFVDVLKLLHIDFRDAVAHASRQLGKPVIEDRILNQILYYLPQLYELNRDLLKELEERMLHWTEQQRIADIFVKKGPYLKMYSTYIKEFDKNIALLDEQCKKNPGFAAVVREFEMSPRCANLALKHYLLKPVQRIPQYRLLLTDYLKNLIEDAGDYRDTQDALAVVIEVANHANDTMKQGDNFQKLMQIQYSLNGHHEIVQPGRVFLKEGILMKLSRKVMQPRMFFLFNDALLYTTPVQSGMYKLNNMLSLAGMKVRKPTQEAYQNELKIESVERSFILSASSATERDEWLEAISRAIEEYAKKRITFCPSRSLDEADSENKEEVSPLGSKAPIWIPDTRATMCMICTSEFTLTWRRHHCRACGKIVCQACSSNKYGLDYLKNQPARVCEHCFQELQKLDHQHSPRIGSPGNHKSPSSALSSVLHSIPSGRKQKKIPAALKEVSANTEDSSMSGYLYRSKGNKKPWKHFWFVIKNKVLYTYAASEDVAALESQPLLGFTVIQVKDENSESKVFQLLHKNMLFYVFKAEDAHSAQKWIEAFQEGTIL | – | 2.545 log2
3 | 5.4303 | – | RNPC3 (protein, UniProt Q96LT9 1-517, looked up) RNA-binding region-containing …: MAAPEQPLAISRGCTSSSSLSPPRGDRTLLVRHLPAELTAEEKEDLLKYFGAQSVRVLSDKGRLKHTAFATFPNEKAAIKALTRLHQLKLLGHTLVVEFAKEQDRVHSPCPTSGSEKKKRSDDPVEDDKEKKELGYLTVENGIAPNHGLTFPLNSCLKYMYPPPSSTILANIVNALASVPKFYVQVLHLMNKMNLPTPFGPITARPPMYEDYMPLHAPLPPTSPQPPEEPPLPDEDEELSSEESEYESTDDEDRQRMNKLMELANLQPKRPKTIKQRHVRKKRKIKDMLNTPLCPSHSSLHPVLLPSDVFDQPQPVGNKRIEFHISTDMPAAFKKDLEKEQNCEEKNHDLPATEVDASNIGFGKIFPKPNLDITEEIKEDSDEMPSECISRRELEKGRISREEMETLSVFRSYEPGEPNCRIYVKNLAKHVQEKDLKYIFGRYVDFSSETQRIMFDIRLMKEGRMKGQAFIGLPNEKAAAKALKEANGYVLFGKPMVVQFARSARPKQDPKEGKRKC | -2.187 | –
4 | – | -2.386 log2 | AMER1 (protein, UniProt Q5JTC6 1-1135, looked up) APC membrane recruitment …: METQKDEAAQAKGAAASGSTREQTAEKGAKNKAAEATEGPTSEPSSSGPGRLKKTAMKLFGGKKGICTLPSFFGGGRSKGSGKGSSKKGLSKSKTHDGLSEAAHGPEDVVSEGTGFSLPLPELPCQFPSSQSAHGALETGSRCKTSVAGATEKAVAEKFPSMPKPKKGLKGFFSSIRRHRKSKVTGAEQSEPGAKGPERVRARPHEHVSSAPQVPCFEETFQAPRKENANPQDAPGPKVSPTPEPSPPATEKMACKDPEKPMEACASAHVQPKPAPEASSLEEPHSPETGEKVVAGEVNPPNGPVGDPLSLLFGDVTSLKSFDSLTGCGDIIAEQDMDSMTDSMASGGQRANRDGTKRSSCLVTYQGGGEEMALPDDDDEEEEEEEEVELEEEEEEVKEEEEDDDLEYLWETAQMYPRPNMNLGYHPTTSPGHHGYMLLDPVRSYPGLAPGELLTPQSDQQESAPNSDEGYYDSTTPGFEDDSGEALGLVRRDCLPRDSYSGDALYEFYEPDDSLENSPPGDDCLYDLHGRSSEMFDPFLNFEPFLSSRPPGAMETEEERLVTIQKQLLYWELRREQLEAQEARAREAHAREAHAREAYTREAYGREAYAREAHTWEAHGREARTREAQAREVRCRETQVRETQARQEKPVLEYQMRPLGPSVMGLAAGVSGTSQISHRGITSAFPTTASSEPDWRDFRPLEKRYEGTCSKKDQSTCLMQLFQSDAMFEPDMQEANFGGSPRRAYPTYSPPEDPEEEEVEKEGNATVSFSQALVEFTSNGNLFSSMSCSSDSDSSFTQNLPELPPMVTFDIADVERDGEGKCEENPEFHNDEDLAASLEAFELGYYHKHAFNNYHSRFYQGLPWGVSSLPRYLGLPGLHPRPPPAAMALNRRSRSLDTAETLEMELSNSHLVQGYLESDELQAQQEDSDEEDEEEEEGEWSRDSPLSLYTEPPGAYDWPAWAPCPLPVGPGPAWISPNQLDRPSSQSPYRQATCCIPPMTMSISLSVPESRAPGESGPQLARPSHLHLPMGPCYNLQPQASQSMRARPRDVLLPVDEPSCSSSSGGFSPSPLPQAKPVGITHGIPQLPRVRPEHPQPQPTHYGPSSLDLSKERAEQGASLATSYSSTAMNGNLAK | – | 1.494 log2
5 | – | -2.312 log2 | FOXK1 (protein, UniProt P85037 2-733, looked up) Forkhead box protein K1: AEVGEDSGARALLALRSAPCSPVLCAAAAAAAFPAAAPPPAPAQPQPPPGPPPPPPPPLPPGAIAGAGSSGGSSGVSGDSAVAGAAPALVAAAAASVRQSPGPALARLEGREFEFLMRQPSVTIGRNSSQGSVDLSMGLSSFISRRHLQLSFQEPHFYLRCLGKNGVFVDGAFQRRGAPALQLPKQCTFRFPSTAIKIQFTSLYHKEEAPASPLRPLYPQISPLKIHIPEPDLRSMVSPVPSPTGTISVPNSCPASPRGAGSSSYRFVQNVTSDLQLAAEFAAKAASEQQADTSGGDSPKDESKPPFSYAQLIVQAISSAQDRQLTLSGIYAHITKHYPYYRTADKGWQNSIRHNLSLNRYFIKVPRSQEEPGKGSFWRIDPASEAKLVEQAFRKRRQRGVSCFRTPFGPLSSRSAPASPTHPGLMSPRSGGLQTPECLSREGSPIPHDPEFGSKLASVPEYRYSQSAPGSPVSAQPVIMAVPPRPSSLVAKPVAYMPASIVTSQQPAGHAIHVVQQAPTVTMVRVVTTSANSANGYILTSQGAAGGSHDAAGAAVLDLGSEARGLEEKPTIAFATIPAAGGVIQTVASQMAPGVPGHTVTILQPATPVTLGQHHLPVRAVTQNGKHAVPTNSLAGNAYALTSPLQLLATQASSSAPVVVTRVCEVGPKEPAAAVAATATTTPATATTASASASSTGEPEVKRSRVEEPSGAVTTPAGVIAAAGPQGPGTGE | – | 5.634 log2
